# In patent US20050002900A1, “Method of treating estrogen responsive breast cancer” (priority 2001, published 2005):
# How the values were obtained:
# aromatase mRNA = assay: RT-PCR of aromatase mRNA in cultured adipocytes; format: cell-based, human; conditions: for expression of aromatase mRNA in human adipocytes: interferon alone, endogenous expression, FIG. 3; for transcription of aromatase mRNA: cytokine alone compared to untreated control
# Method: (§1) Human subcutaneous cultured adipocytes and preadipocytes, catalog nos. SP-1012, SP-1024, SP-1096, SP-75, or SP-25 were purchased from Zen-Bio, Inc. (Research Triangle Park, N.C.) and cultured according to the manufacturer's instructions.
# Adipocyte cultures were treated with IL-1-β, IFN-γ, TNF-α, and combinations of IL-1-β and IFN-γ and TNF-α and IFN-γ. Consequently, total RNA from cultured adipocytes was isolated using conventional methods. The reverse transcriptase polymerase chain reaction (RT-PCR) was performed using aromatase specific primers. The amplified aromatase cDNA fragments produced by RT-PCR were separated on an agarose gel. […] The estradiol production by the cells is shown as pikograms/ml (pg/ml) below the photograph of the gel showing the aromatase mRNA levels.
# (§2) The isolated human adipocytes were also treated with different interferon family members: IFN-α, -β, and -γ.
# human adipocytes = assay: Estradiol production by cultured human adipocytes (Active Estradiol EIA kit); format: cell-based; conditions: for estradiol amount: cytokine alone at increasing concentrations
# Method: as §1
# The culture medium of the preadipocytes was supplemented with 0.1 μg/ml IFN-γ and increasing concentrations of either TNF-α or TNF-β as shown in FIG. 1. Estradiol concentrations were measured using the Active™ Estradiol EIA kit according to the manufacturer's instructions (catalog no. DSL-10-4300, Diagnostic Systems Laboratories, Inc., Webster, Tex.).
# as §2
molecule,measurement,setting,value
IFN-α,expression of aromatase mRNA in human adipocytes,aromatase mRNA,significantly increased
same,estradiol production increase upon interferon induction,"human adipocytes; interferon alone, FIG. 3",about 6 fold
IL-1β: interleukin-1β,transcription of aromatase mRNA,aromatase mRNA; FIG. 2,induced
TNF-α,transcription of aromatase mRNA,aromatase mRNA; FIG. 2,induced
same,estradiol amount,human adipocytes; FIG. 1,significantly increased
"TBP: soluble TNF binding protein, TNF-R1, as described in U.S. Pat. No. 6,225,300 (protein, UniProt P19438 30-211, looked up, extracellular domain) extracellular domain: LVPHLGDREKRDSVCPQGKYIHPQNNSICCTKCHKGTYLYNDCPGPGQDTDCRECESGSFTASENHLRHCLSCSKCRKEMGQVEISSCTVDRDTVCGCRKNQYRHYWSENLFQCFNCSLCLNGTVHLSCQEKQNTVCTCHAGFFLRENECVSCSNCKKSLECTKLCLPQIENVKGTEDSGTT",TNF-α induced estradiol production,"human adipocytes; TNF-α at varying concentrations plus TBP, FIG. 4",completely blocked
same,TNF-β induced estradiol production,"human adipocytes; TNF-β at varying concentrations plus TBP, FIG. 4",completely blocked
"IFN-γ: interferon gamma, added at 0.1 μg/ml to adipocyte culture medium (protein, UniProt P01579 24-161, looked up) Interferon gamma: QDPYVKEAENLKKYFNAGHSDVADNGTLFLGILKNWKEESDRKIMQSQIVSFYFKLFKNFKDDQSIQKSVETIKEDMNVKFFNSNKKKRDDFEKLTNYSVTDLNVQRKAIHELIQVMAELSPAAKTGKRKRSQMLFRG",transcription of aromatase mRNA induced by IL-1β,"aromatase mRNA; given together with IL-1β, FIG. 2",inhibits
same,transcription of aromatase mRNA induced by TNFα,"aromatase mRNA; given together with TNFα, FIG. 2",inhibits
same,expression of aromatase mRNA in human adipocytes,aromatase mRNA,inhibits
same,TNF-α induced estradiol production,"human adipocytes; 0.1 μg/ml IFN-γ, increasing concentrations of TNF-α, FIG. 1",inhibits
same,TNF-β induced estradiol production,"human adipocytes; 0.1 μg/ml IFN-γ, increasing concentrations of TNF-β, FIG. 1",inhibits
same,estradiol production,"human adipocytes; IFN-γ alone, FIG. 3",blocked completely
"TNF-β: tumor necrosis factor beta (protein, UniProt P01374 35-205, looked up) Lymphotoxin-alpha: LPGVGLTPSAAQTARQHPKMHLAHSTLKPAAHLIGDPSKQNSLLWRANTDRAFLQDGFSLSNNSLLVPTSGIYFVYSQVVFSGKAYSPKATSSPLYLAHEVQLFSSQYPFHVPLLSSQKMVYPGLQEPWLHSMYHGAAFQLTQGDQLSTHTDGIPHLVLSPSTVFFGAFAL",estradiol amount,human adipocytes; FIG. 1,significantly increased
